Laboratory results reported in patent publication US20140271457A1 (AbbVie / Abbott, published 2014).

Target: Recombinant Human IL-13 (human, UniProt P35225 35-146, limits assumed)
Assay: Biacore SPR
Protocol: The BIACORE assay (GE, Healthcare Piscataway, N.J.) determined the affinity of antibodies or DVD-Ig with kinetic measurements of on-rate and off-rate constants. Binding of antibodies or DVD-Ig proteins to a target antigen (for example, a purified recombinant target antigen) was determined by surface plasmon resonance-based measurements with a Biacore T200 using running HBS-EP+buffer from GE Healthcare at 25° C. All chemicals were obtained from GE Healthcare or otherwise from a different source as described in the text. For example, approximately 5000 RU of goat anti-mouse IgG, (Fcγ), fragment specific polyclonal antibody (Pierce Biotechnology Inc, Rockford, Ill.) diluted in 10 mM sodium acetate (pH 4.5) was directly immobilized across a CM5 research grade biosensor chip using a standard amine coupling kit according to manufacturer's instructions. Unreacted moieties on the biosensor surface were blocked with ethanolamine. Modified carboxymethyl dextran surface in flowcell 1 was used as a reference surface. Rate constants were derived by making kinetic binding measurements at different antigen concentrations ranging from 0.8-100 nM. Binding was recorded as a function of time and kinetic rate constants were calculated. In this assay, association rate was evaluated for 5 min and dissociation was monitored for 10 min. For kinetic screening analysis, rate equations derived from the 1:1 binding model were fitted simultaneously to association and dissociation phases of all injections (using global fit analysis with Rmax fit locally to account for capture variations) with the use of Biaevaluation software. Purified antibodies or DVD-Ig proteins were diluted in HEPES-buffered saline for capture across goat anti-mouse IgG specific reaction surfaces. Antibodies or DVD-Ig proteins to be captured as a ligand were injected over reaction matrices at a flow rate of 5 μl/minute. The association and dissociation rate constants, kₒₙ (M⁻¹ s⁻¹) and koff (s⁻¹) were determined under a continuous flow rate of 50 μl/minute. Rate constants were derived by making kinetic binding measurements at different antigen concentrations ranging from 0.8-100 nM. Binding was recorded as a function of time and kinetic rate constants were calculated. In this assay, association rate was evaluated for 5 min and dissociation was monitored for 10 min.

Sequence of Recombinant Human IL-13 (P35225 35-146 limits assumed): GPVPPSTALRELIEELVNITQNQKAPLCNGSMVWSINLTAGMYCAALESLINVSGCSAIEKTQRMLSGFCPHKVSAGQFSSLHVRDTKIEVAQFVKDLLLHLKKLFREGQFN

B1: DVD2733 (bispecific antibody, IgG1)
VH: EVQLVESGGGLVQPGGSLRLSCAASGFTFSNYGVEWVRQAPGKGLEWVSGIWADGSTHYADTVKSRFTISRDNSKNTLYLQMNSLRAEDTAVYYCAREWQHGPVAYWGQGTLVTVSSGGGGSGGGGSEVTLRESGPGLVKPTQTLTLTCTLYGFSLSTSDMGVDWIRQPPGKGLEWLAHIWWDDVKRYNPALKSRLTISKDTSKNQVVLKLTSVDPVDTATYYCARTVSSGYIYYAMDYWGQGTLVTVSS
VL: DIQMTQSPSSLSASVGDRVTITCKASQLVSSAVAWYQQKPGKAPKLLIYWASTLHTGVPSRFSGSGSGTDFTLTISSLQPEDFATYYCQQHYRTPFTFGQGTKLEIKRGGSGGGGSGDIQMTQSPSSLSASVGDRVTISCRASQDIRNYLNWYQQKPGKAPKLLIFYTSKLHSGVPSRFSGSGSGTDYTLTISSLQPEDIATYYCQQGLTPPLTFGGGTKVEIKR
notes: DVD-Ig; wt hIgG1 + kappa constants
Q: With B1 as the binder, how does the Kd read?
A: 1.1 nM

Q: What about the koff of the same binder?
A: 8.6e-05 s⁻¹

Q: And the kon?
A: 79000 M⁻¹ s⁻¹

B2: DVD2684 (bispecific antibody, IgG1)
VH: EVQLVESGGGLVQPGGSLRLSCAASGFTFSNYGVTWVRQAPGKGLEWVSMIWADGSTHYASSVKGRFTISRDNSKNTLYLQMNSLRAEDTAVYYCAREWQHGPVAYWGQGTLVTVSSASTKGPEVTLRESGPGLVKPTQTLTLTCTLYGFSLSTSDMGVDWIRQPPGKGLEWLAHIWWDDVKRYNPALKSRLTISKDTSKNQVVLKLTSVDPVDTATYYCARTVSSGYIYYAMDYWGQGTLVTVSS
VL: DIQMTQSPSSLSASVGDRVTITCRASQLVSSAVAWYQQKPGKAPKLLIYWASARHTGVPSRFSGSGSGTDFTLTISSLQPEDFATYYCQQHYKTPFTFGQGTKLEIKRTVAAPDIQMTQSPSSLSASVGDRVTISCRASQDIRNYLNWYQQKPGKAPKLLIFYTSKLHSGVPSRFSGSGSGTDYTLTISSLQPEDIATYYCQQGLTPPLTFGGGTKVEIKR
notes: as for B1
Q: What does the source list for B2?
A: Kd: 1.2 nM; koff: 5.9e-05 s⁻¹; kon: 48000 M⁻¹ s⁻¹

B3: DVD2686 (bispecific antibody, IgG1)
VH: EVQLVESGGGLVQPGGSLRLSCAASGFTFSNYGVTWVRQAPGKGLEWVSMIWADGSTHYASSVKGRFTISRDNSKNTLYLQMNSLRAEDTAVYYCAREWQHGPVAYWGQGTLVTVSSASTKGPEVTLRESGPGLVKPTQTLTLTCTLYGFSLSTSDMGVDWIRQPPGKGLEWLAHIWWDDVKRYNPALKSRLTISKDTSKNQVVLKLTSVDPVDTATYYCARTVSSGYIYYAMDYWGQGTLVTVSS
VL: DIQMTQSPSSLSASVGDRVTITCRASQLVSSAVAWYQQKPGKAPKLLIYWASARHTGVPSRFSGSGSGTDFTLTISSLQPEDFATYYCQQHYKTPFTFGQGTKLEIKRTVAAPSVFIFPPDIQMTQSPSSLSASVGDRVTISCRASQDIRNYLNWYQQKPGKAPKLLIFYTSKLHSGVPSRFSGSGSGTDYTLTISSLQPEDIATYYCQQGLTPPLTFGGGTKVEIKR
notes: as for B1
Q: How did the Kd turn out when B3 was run?
A: 0.32 nM

Q: What about the koff of the same binder?
A: 4.4e-05 s⁻¹

Q: And the kon?
A: 140000 M⁻¹ s⁻¹

B4: DVD2734 (bispecific antibody, IgG1)
VH: EVQLVESGGGLVQPGGSLRLSCAASGFTFSNYGVEWVRQAPGKGLEWVSGIWADGSTHYADTVKSRFTISRDNSKNTLYLQMNSLRAEDTAVYYCAREWQHGPVAYWGQGTLVTVSSASTKGPEVTLRESGPGLVKPTQTLTLTCTLYGFSLSTSDMGVDWIRQPPGKGLEWLAHIWWDDVKRYNPALKSRLTISKDTSKNQVVLKLTSVDPVDTATYYCARTVSSGYIYYAMDYWGQGTLVTVSS
VL: DIQMTQSPSSLSASVGDRVTITCKASQLVSSAVAWYQQKPGKAPKLLIYWASTLHTGVPSRFSGSGSGTDFTLTISSLQPEDFATYYCQQHYRTPFTFGQGTKLEIKRTVAAPDIQMTQSPSSLSASVGDRVTISCRASQDIRNYLNWYQQKPGKAPKLLIFYTSKLHSGVPSRFSGSGSGTDYTLTISSLQPEDIATYYCQQGLTPPLTFGGGTKVEIKR
notes: as for B1
Q: With B4 as the binder, how does the Kd read?
A: 0.82 nM

Q: What about the koff of the same binder?
A: 4.8e-05 s⁻¹

Q: And the kon?
A: 58000 M⁻¹ s⁻¹
